Data on two molecules can be found in patent US20070092942A1 (published 2007).

Where a chain is given by its changes, count along the chain named. Names and notes keep the numbering of the source.

The target of test [1] is T1, HA-tagged Ub-vinylmethyl ester (UniProt P0CG47 1-75).
T1 construct: also called HAUbVME; HA-UbVME
Put plainly: 1 uM enzyme with 2 uM HAUbVME, SDS-PAGE silver stain and anti-HA immunoblot. (Immunoblotting shows a protein as a band on a membrane.)

In test [2] the target is T1, HA-tagged Ub-vinylmethyl ester. The test can be described thus: HAUbVME labelling, SDS-PAGE and anti-HA immunoblot.

B1: EBV205 (enzyme)
chain: MSNGDWGQSQRTRGTGPVRGIRTMDVNAPGGGSGGSALRILGTASCNQAHCKFGRFAGIQCVSNCVLYLVKSFLAGRPLTSRPELDEVLDEGARLDALMRQSGILKGHEMAQLTDVPSSVVLRGGGRVHIYRSAEIFGLVLFPAQIANSAVVQSLAEVLHGSYNGVAQFILYICDIYAGAIIIETDGSFYLFDPHCQKDAAPGTP
notes: range 1-205; not shown: N-terminal His-tag from pET28
As to B1, the binding result in test [1] was “binds”.

B2: EBV205 C61A (enzyme)
chain: B1 chain with C61A
notes: range 1-205; also called EBV205 active site mutant (C61A); not shown: N-terminal His-tag from pET28
For the molecule B2, in test [2], the binding result is on record as “no binding (tested: 2 uM HAUbVME, 1 uM enzyme)”.
